The values below come from patent US20120115880A1 (ST JUDE CHILDREN S RESEARCH HOSPITAL, published 2012).

Assay [1] has as its target T1, recombinant MDM2 (amino acid residues 1-188) GST fusion protein (UniProt Q00987 1-188).
T1 construct: range 1-188; Expressed in E. coli BL21(DE3) from pGEX-4-T-1 and eluted as a GST fusion; GST is placed N-terminally by the usual layout of the vector; not shown: glutathione S-transferase tag encoded by pGEX-4-T-1
Put plainly: fluorescence polarization assay with recombinant GST-MDM2 (1-188). How it is done: (§1) Kd's and Kᵢ's were calculated by fitting the data to a single-site binding mode with variable slope (Y=Bottom+(Top−Bottom)/(1+10̂((LogEC50-X)*HillSlope))) using […] PRISM software.
(In general: Polarisation of emitted light reports the rotation of a fluorescent probe.)

In assay [2] the target is T2, recombinant MDMX (amino acid residues 1-185) GST fusion protein (UniProt O15151 1-185).
T2 construct: range 1-185; Expressed in E. coli BL21(DE3) from pGEX-4-T-1 and eluted as a GST fusion; GST is placed N-terminally by the usual layout of the vector; also called MDMX-GST; not shown: glutathione S-transferase tag encoded by pGEX-4-T-1
T2 sequence (looked up): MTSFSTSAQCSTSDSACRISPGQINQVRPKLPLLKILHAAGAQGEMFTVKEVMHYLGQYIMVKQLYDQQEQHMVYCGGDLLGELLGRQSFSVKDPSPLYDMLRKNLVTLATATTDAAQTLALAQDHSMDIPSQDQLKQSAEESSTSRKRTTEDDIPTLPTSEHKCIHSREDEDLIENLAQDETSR
The experiment in a line: fluorescence polarization assay with recombinant GST-MDMX (1-185). How it is done: as §1

T1 sequence (Q00987 1-188): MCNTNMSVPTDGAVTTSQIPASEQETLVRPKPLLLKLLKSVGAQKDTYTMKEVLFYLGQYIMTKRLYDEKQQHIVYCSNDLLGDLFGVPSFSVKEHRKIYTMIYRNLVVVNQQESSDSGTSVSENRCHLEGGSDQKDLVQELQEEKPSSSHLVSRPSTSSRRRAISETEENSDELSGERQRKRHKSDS

For the molecule H-GSGSSQETASDLAKLAPEN-OH, the binding result in assay [1] and in assay [2] was “no binding” in each case.
